Reference: publication PMC5344980, “PARP1 promotes gene expression at the post-transcriptional level by modulating the RNA-binding protein HuR”

Tests used:
GST-HuR [1] = molecular target: T1, GST-HuR (human? (species ; plasmid …, UniProt Q15717 1-326); test: EMSA; with PARP1 + PJ34; enhancement abolished; 3 mM MgCl2, 40 mM KCl, 5% glycerol, 2 mM DTT, 2 ug tRNA, 20 uM (so in the source) 5'-biotin RNA, 40 min at room temperature; 6% native acrylamide gel; protein 100-160; conditions: protein: recombinant; tags: GST; label: 5' biotin
T1 sequence (Q15717 whole entry): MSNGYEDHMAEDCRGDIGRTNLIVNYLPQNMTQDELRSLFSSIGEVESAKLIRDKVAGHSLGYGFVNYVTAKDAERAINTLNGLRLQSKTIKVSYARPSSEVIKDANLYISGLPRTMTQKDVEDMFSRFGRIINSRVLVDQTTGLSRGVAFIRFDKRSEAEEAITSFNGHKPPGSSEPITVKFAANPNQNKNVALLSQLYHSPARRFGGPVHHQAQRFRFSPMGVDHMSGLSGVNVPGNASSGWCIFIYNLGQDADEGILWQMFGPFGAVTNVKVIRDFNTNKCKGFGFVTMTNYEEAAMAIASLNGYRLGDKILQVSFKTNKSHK

GST-HuR [2] = molecular target: T1, GST-HuR; test: EMSA; no PARP1; 3 mM MgCl2, 40 mM KCl, 5% glycerol, 2 mM DTT, 2 ug tRNA, 20 uM (so in the source) 5'-biotin RNA, 40 min at room temperature; 6% native acrylamide gel; protein 100-160; conditions: protein: recombinant; tags: GST; label: 5' biotin
GST-HuR [3] = molecular target: T1, GST-HuR; test: EMSA; no PARP1; Kd value only in figure; 3 mM MgCl2, 40 mM KCl, 5% glycerol, 2 mM DTT, 2 ug tRNA, 20 uM (so in the source) 5'-biotin RNA, 40 min at room temperature; 6% native acrylamide gel; protein 100-160; conditions: protein: recombinant; tags: GST; label: 5' biotin
GST-HuR [4] = molecular target: T1, GST-HuR; test: EMSA; no PARP1; several shifted bands; 3 mM MgCl2, 40 mM KCl, 5% glycerol, 2 mM DTT, 2 ug tRNA, 20 uM (so in the source) 5'-biotin RNA, 40 min at room temperature; 6% native acrylamide gel; protein 100-160; conditions: protein: recombinant; tags: GST; label: 5' biotin
PARP1 = PARP1 (UniProt P09874 2-1014); test: EMSA; PARylation buffer, titrated sonicated DNA; no shifted bands; 3 mM MgCl2, 40 mM KCl, 5% glycerol, 2 mM DTT, 2 ug tRNA, 20 uM (so in the source) 5'-biotin RNA, 40 min at room temperature; 6% native acrylamide gel; protein 100-160; conditions: protein: recombinant; label: 5' biotin
PARP1, sequence (P09874 2-1014): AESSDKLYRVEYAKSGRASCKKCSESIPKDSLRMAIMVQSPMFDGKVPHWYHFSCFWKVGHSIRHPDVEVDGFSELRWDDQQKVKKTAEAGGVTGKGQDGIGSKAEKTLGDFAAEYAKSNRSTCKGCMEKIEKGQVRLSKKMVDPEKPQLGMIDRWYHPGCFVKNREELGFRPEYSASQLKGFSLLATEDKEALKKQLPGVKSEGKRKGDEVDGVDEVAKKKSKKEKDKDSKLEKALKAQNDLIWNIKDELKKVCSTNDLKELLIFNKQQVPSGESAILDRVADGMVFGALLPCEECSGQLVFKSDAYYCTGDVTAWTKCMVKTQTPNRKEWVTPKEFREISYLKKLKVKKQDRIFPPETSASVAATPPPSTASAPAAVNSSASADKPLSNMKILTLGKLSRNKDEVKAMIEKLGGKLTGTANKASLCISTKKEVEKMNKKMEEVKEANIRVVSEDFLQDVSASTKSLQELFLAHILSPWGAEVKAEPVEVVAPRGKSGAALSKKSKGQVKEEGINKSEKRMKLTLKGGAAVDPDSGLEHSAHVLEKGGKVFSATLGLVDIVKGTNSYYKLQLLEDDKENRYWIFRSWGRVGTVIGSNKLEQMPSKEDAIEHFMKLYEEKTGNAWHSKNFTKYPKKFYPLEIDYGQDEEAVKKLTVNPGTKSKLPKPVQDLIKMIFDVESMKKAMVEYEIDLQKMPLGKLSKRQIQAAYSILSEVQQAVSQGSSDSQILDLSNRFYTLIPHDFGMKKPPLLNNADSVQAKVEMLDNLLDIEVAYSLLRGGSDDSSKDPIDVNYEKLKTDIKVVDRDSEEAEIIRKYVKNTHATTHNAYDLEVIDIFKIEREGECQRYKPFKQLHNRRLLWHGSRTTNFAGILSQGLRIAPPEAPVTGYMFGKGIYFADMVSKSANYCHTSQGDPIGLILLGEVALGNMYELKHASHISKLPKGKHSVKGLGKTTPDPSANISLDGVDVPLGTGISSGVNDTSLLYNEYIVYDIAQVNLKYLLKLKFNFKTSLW

CUAUGUAUUUAUUUAUUUAUUAAUU (ssRNA) [Cxcl2-ARE2 RNA oligo]
binding result (GST-HuR [1]): binds

GUGGACACAUUUAUUUAUUCAUGUA (ssRNA) [Cxcl2-ARE3 RNA oligo]
binding result (GST-HuR [2]): no binding

AGUUCACUUAUUUAUUUAUCUAUGU (ssRNA) [Cxcl2-ARE1 RNA oligo]
binding result (GST-HuR [3]): binds

AUUUAUUUAUUUAUUUAUUUAUUUA (ssRNA) [AU-rich RNA oligo (tandem ARE)]
binding result (GST-HuR [4]): binds | binding result (PARP1): no binding
